Source: PMC8809517, “Cofactor-independent RNA editing by a synthetic S-type PPR protein”

T1: GFP-9S library array, motif 4 ND N98T;D124S (synthetic construct, N98T;D124S)
T1 chain: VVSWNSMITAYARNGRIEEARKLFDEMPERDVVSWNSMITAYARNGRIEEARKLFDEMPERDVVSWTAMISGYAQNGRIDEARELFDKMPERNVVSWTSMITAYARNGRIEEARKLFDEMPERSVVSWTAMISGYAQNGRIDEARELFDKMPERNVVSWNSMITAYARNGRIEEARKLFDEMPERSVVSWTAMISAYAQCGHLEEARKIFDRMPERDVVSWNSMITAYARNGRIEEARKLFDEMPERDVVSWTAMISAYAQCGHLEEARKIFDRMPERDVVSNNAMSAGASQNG

T2: GFP-9S library array, motif 4 ND N98D;D124Q (synthetic construct, N98D;D124Q)
T2 chain: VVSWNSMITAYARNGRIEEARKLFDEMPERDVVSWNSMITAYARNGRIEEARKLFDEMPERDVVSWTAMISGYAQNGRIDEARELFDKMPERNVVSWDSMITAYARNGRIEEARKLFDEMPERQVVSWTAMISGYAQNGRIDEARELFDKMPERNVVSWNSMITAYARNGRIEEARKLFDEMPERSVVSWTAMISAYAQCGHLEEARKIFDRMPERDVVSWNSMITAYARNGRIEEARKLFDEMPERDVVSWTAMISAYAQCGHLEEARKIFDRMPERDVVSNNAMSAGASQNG

T3: GFP-9S library array, motif 4 ND D124N (synthetic construct, D124N)
T3 chain: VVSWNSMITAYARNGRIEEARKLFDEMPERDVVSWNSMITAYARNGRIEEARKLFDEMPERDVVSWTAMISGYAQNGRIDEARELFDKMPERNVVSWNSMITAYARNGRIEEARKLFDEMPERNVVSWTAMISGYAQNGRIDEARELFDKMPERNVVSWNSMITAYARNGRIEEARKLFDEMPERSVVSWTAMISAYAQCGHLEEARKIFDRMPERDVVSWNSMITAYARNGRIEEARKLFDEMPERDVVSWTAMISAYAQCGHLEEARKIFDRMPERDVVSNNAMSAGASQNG

T4: GFP-9S library array, motif 4 ND N98F;D124F (synthetic construct, N98F;D124F)
T4 chain: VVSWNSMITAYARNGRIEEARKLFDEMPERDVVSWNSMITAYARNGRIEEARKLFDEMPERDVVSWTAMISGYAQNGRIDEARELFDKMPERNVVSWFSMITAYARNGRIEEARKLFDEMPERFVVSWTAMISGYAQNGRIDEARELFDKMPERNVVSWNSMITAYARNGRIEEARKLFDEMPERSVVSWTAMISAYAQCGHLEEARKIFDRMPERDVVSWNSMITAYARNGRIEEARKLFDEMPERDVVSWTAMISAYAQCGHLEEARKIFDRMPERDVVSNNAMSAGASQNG

T5: GFP-9S library array, motif 4 ND N98L;D124C (synthetic construct, N98L;D124C)
T5 chain: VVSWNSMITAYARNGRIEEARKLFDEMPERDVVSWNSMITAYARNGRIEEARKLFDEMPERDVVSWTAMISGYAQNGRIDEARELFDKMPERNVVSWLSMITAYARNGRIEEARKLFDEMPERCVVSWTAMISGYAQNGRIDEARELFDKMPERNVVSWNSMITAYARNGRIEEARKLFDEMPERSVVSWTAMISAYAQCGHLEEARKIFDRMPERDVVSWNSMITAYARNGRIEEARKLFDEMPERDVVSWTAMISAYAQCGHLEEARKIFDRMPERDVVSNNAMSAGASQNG


Key:
Assay in all cases: high-throughput RNA pulldown from lysate on Ni-NTA beads; HRP: 50 mM Tris pH 8, 150 mM NaCl, 1 mM beta-mercaptoethanol, 50 ug/ml BSA, 3 ug/ml yeast RNA, 0.5% heparin; ITC and FP: Tris pH 8, 200 mM KCl, 5% glycerol; MST: 50 mM Tris pH 8, 200 mM NaCl, 1 mM DTT, BSA, heparin, 0.05% Tween 20
Conditions in all cases: tags: N-terminal His-eGFP
[1] = biological target: T1, GFP-9S library array, motif 4 ND …
[2] = biological target: T2, GFP-9S library array, motif 4 ND …
[3] = biological target: T3, GFP-9S library array, motif 4 ND D124N
[4] = biological target: T4, GFP-9S library array, motif 4 ND …
[5] = biological target: T5, GFP-9S library array, motif 4 ND …

Binder	Kd ([1]; label: 5' IRDye 800CW)	Kd ([2]; label: 5' IRDye 800CW)	Kd ([3]; label: 5' IRDye 800CW)	Kd ([4]; label: 5' IRDye 800CW)	Kd ([5]; label: 5' IRDye 800CW)	Kd ([1]; label: 5' Cy5)	Kd ([2]; label: 5' Cy5)	Kd ([3]; label: 5' Cy5)	Kd ([4]; label: 5' Cy5)	Kd ([5]; label: 5' Cy5)
AUUAAACGUGA (ssRNA) [IR-rpoA-A]	18.4 nM	973 nM	114 nM	200 nM	98.7 nM	–	–	–	–	–
AUUACACGUGA (ssRNA) [Cy5-rpoA]	–	–	–	–	–	37 nM	369 nM	3.13 nM	76.4 nM	89 nM
AUUAGACGUGA (ssRNA) [Cy5-rpoA-G]	–	–	–	–	–	65.5 nM	270 nM	178 nM	92.1 nM	70.4 nM
AUUAUACGUGA (ssRNA) [IR-rpoA-U]	48.8 nM	803 nM	11.6 nM	140 nM	60.2 nM	–	–	–	–	–
